Measured values taken from patent US20250381223A1 (UTC THERAPEUTICS SHANGHAI, published 2025).

Key:
[1] = molecular target: T1, mesothelin-Fc recombinant protein (human, UniProt Q13421 296-580, limits assumed); assay: flow cytometry, T cells with CAR mRNA, mesothelin-Fc + PE-anti-IgG-Fc; Control 0.97
T1 construct: construct not described; also called Meso-Fc; not shown: Fc part
Description: (§1) Mesothelin CAR mRNA obtained in Example 26 above was introduced into A549 tumor cells and T cells by electroporation, and the procedures are as follows: A549 tumor cells and T cells were collected and washed 3 times with the Opti-MEM medium. The cell pellet was resuspended in the Opti-MEM medium and the cell concentration was adjusted to 1×10e7 cells/mL. 10 μg of RNA was aliquoted into 1.5-mL EP tubes, 100 μL of T cells or A549 cells were added, followed by mixing well. 100 μL of cells mixed with RNA were added to the BTX electroporation cuvette and slight tapping was performed to avoid air bubbles. Electroporation was performed using a BTX instrument under the following parameters: for T cells: 500 V voltage, 0.7 ms; for A549 tumor cells: 300 V voltage, 0.5 ms. The cells were then transferred to a pre-warmed medium and cultured at 37° C. The binding of mesothelin CART cells to the mesothelin-Fc recombinant protein was determined by FACS staining. […] T cells without CAR molecules served as the control (“Mock”).

[2] = molecular target: T1, mesothelin-Fc recombinant protein; assay: flow cytometry, T cells with CAR mRNA, mesothelin-Fc + PE-anti-IgG-Fc; Control 0.63
Description: as §1

[3] = molecular target: T2, CD40-Fc (human, UniProt P25942); assay: flow cytometry of T cells co-electroporated with 15 µg diabody mRNA and 0.5 µg 4D5.BBZ mRNA; CD40-Fc + PE-anti-IgG-Fc; E1 without mRNA: 0.27
T2 construct: part fused to Fc; staining reagent of the flow cytometry; also called recombinant human CD40-Fc antigen protein

[4] = molecular target: T2, CD40-Fc; assay: flow cytometry of T cells co-electroporated with 15 µg diabody mRNA and 2 µg M12 CAR mRNA; CD40-Fc + PE-anti-Fc; E1 without mRNA: 0.56

T1 sequence (Q13421 other isoform, or with tags, fused parts or gaps limits assumed): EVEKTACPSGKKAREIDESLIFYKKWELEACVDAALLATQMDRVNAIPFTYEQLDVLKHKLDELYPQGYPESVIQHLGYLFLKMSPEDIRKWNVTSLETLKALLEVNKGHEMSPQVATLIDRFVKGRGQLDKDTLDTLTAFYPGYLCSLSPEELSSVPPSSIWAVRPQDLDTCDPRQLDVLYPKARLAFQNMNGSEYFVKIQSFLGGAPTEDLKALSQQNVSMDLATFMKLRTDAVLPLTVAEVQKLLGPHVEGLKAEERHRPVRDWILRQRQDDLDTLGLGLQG

B1: anti-mesothelin scFv-M28 (scFv)
scFv: QSALTQPPSASGSPGQSVTISCSGTSSDVGGYNFVSWYQHHPGKAPKLMIYEVSKRPSGVPDRFSGSKSGNTASLTVSGLQAEDEADYYCSSYAGRNNPYLFGTGTKLTVLGGGGSGGGGSGGGGSQLQLQESGAEVKKPGSSVKVSCKASGGTFSSYAISWVRQAPGQGLEWMGGIIPIFGTANYAQKFQGRVTITADESTSTAYMELSSLRSEDTAVYYCARDLGGYSYGHGLDYWGQGTLVTVSS
notes: On mRNA-electroporated T cells as CAR
**Q.** B1 was tested. Which “percent of cells in the gate” value [1] did it give?
**A.** Its value is 82.8%.

B2: anti-mesothelin scFv-M37 (scFv)
scFv: DIVMTQTPSSLSASVGDRVTITCRASQGISNYLAWFQQKPGKAPKPLIYAASSLQSGVPSKFSGSGSGTDFTLTISNLQPEDFATYICQQYSSYPITFGQGTRLEIKGGGGSGGGGSGGGGSQLQLQESGPGLVKPSETLSLTCAVSGGSISPYYWTWIRQSPGKAMEWMGYIHYSGRTNYNPSLESRATFSVDTSKNQISLKLNSVTAADTAVYYCTKVGDPGLFDYWGPGTLVTVSS
notes: as for B1
**Q.** How did the “percent of cells in the gate” value [1] turn out when B2 was run?
**A.** The value was 74.2%.

B3: anti-mesothelin scFv-M27 (scFv)
scFv: EIVLTQSPGTLSLSPGERATLSCRASQPIVASHLAWYQHKPGQAPRLLIYGASTRAAGIPDRFSGSGSGTDFTLTISRLEPEDFAVYFCQQYGISPFTFGPGTKVDIKGGGGSGGGGSGGGGSQVQLVQSGAEVKKPGESLKISCQGSGYSFTDYWIGWVRQAPGQGLEWMGWITPNNGNTNYAPKFQGRVTLTTDTSTSTAYMELRSLTSDDTAVYFCARRGRNSSGYLYYYSMDVWGQGTTVTVSS
notes: as for B1
**Q.** How did the “percent of cells in the gate” value [1] turn out when B3 was run?
**A.** Its value is 76.3%.

B4: anti-mesothelin scFv-M31 (scFv)
scFv: QSALTQPPSASGSPGQSVTISCTGTSSDIGGYNSVSWYQQHPGKAPKLIIYGVSRRPSGVPDRFSGSKSANTASLTVSGLQAVDEADYYCSSYGGSNNLLFGGGTKLTVLGGGGSGGGGSGGGGSEVHLVESGGGLAQPGGSLRLSCAASGFSFSSSWMAWVRQAPGKGLEWVANIKQDGSSQYYVDSVKGRFTISRDNAKNSLSLQMNSLRAEDTAVYYCARDIWYSIDYWGQGTLVTVSS
notes: as for B1
**Q.** Which “percent of cells in the gate” value [1] does the source give for B4 here?
**A.** The value was 67.9%.

B5: anti-mesothelin scFv-M6 (scFv)
scFv: EIVMTQSPATLSLSPGERATLSCRASQSIGNSLAWYQQKPGQAPRLLIYDVSNRATGIPARFSGSGSGTDFTLTISSLEPEDFAVYYCQHRYSWPLTFGGGTKVEIKGGGGSGGGGSGGGGSQVQLVQSGGGLVKPGGSLRLSCAASGFTFSDYYMSWIRQAPGKGLEWVSYISSSGSTIYYADSVKGRFTISRDNAKNSLYLQMNSLRAEDTAVYYCARDGYRTHNWFDPWGQGTLVTVSS
notes: as for B1
**Q.** For B5, which “percent of cells in the gate” value [2] is on record?
**A.** The value was 83.4%.

B6: anti-mesothelin scFv-M20 (scFv)
scFv: AIQMTQSPSSLSASVGNRVTITCRASQGISSAVAWYQQKPGKPPKLLISYASSLESGVPSRFSGSGSGTDFSLTISSLQPEDFATYFCQQFNSYPLTFGGGTKVEIKGGGGSGGGGSGGGGSQVQLVQSGAEVRKPGESLKISCKGSGYSFRDSWIAWVRQMPGQGLEWMGIIFPGDSNPIYSPSFQGQVTISADTSISTTFLQWRSLKASDSAIYYCARHAAWGAGWFDPWGQGTLVTVSS
notes: as for B1
**Q.** With B6 as the binder, how does the “percent of cells in the gate” value [1] read?
**A.** Its value is 75.6%.

B7: anti-mesothelin scFv-M7 (scFv)
scFv: DIRLTQSPSSLSASLGDRVTITCRASQAISSALAWYQQKPGKAPRLLIYDASTLESGVPSRFSGSGSGTDFTLTISSLQPEDFATYYCQQADSFPLTFGGGTKLEIKGGGGSGGGGSGGGGSQVQLVQSGAEVKKSGESLKISCKGSGYGFGAYWIAWVRQMPGKGLEWMGIIYPGDSRVIYSPYFQGQVTISADKSISTAYLQWSSLKASDTAMYYCARFGGPKFATNWFDIWGQGTTVTVSS
notes: as for B1
**Q.** How did the “percent of cells in the gate” value [2] turn out when B7 was run?
**A.** Its value is 36.3%.

B8: anti-mesothelin scFv-M15 (scFv)
scFv: DIQLTQSPSSLSASIGDRVTITCRASQGVNSALAWYQQKPGKPPNLLIYDASSLESGVPSRFSGSGSGRDFTLTISSLQPEDFATYYCQQFSSYPLTFGGGTKVDIKGGGGSGGGGSGGGGSQVQLVQSGAEVKKPGASVKVSCKASGYTFTSYYMHWVRQAPGQGLEWMGIINPSGGSTSYAQKFQGRVTMTRDTSTSTVYMELSSLRSEDTAVYYCARAQRGGSVYFDYWGQGTLVTVSS
notes: as for B1
**Q.** Which “percent of cells in the gate” value [2] does the source give for B8 here?
**A.** Its value is 48.8%.

B9: anti-mesothelin scFv-M8 (scFv)
scFv: DIQLTQSPSSLSASVGDRVTITCRASQSISSSLNWYQQKPGKAPKLLIYAASSLQSGVPSRFSGSGSGTDFTLTISSLQPEDFATYSCQQSYSTPLTFGGGTKVEIKGGGGSGGGGSGGGGSQVHLVESGGGVVQPGRSLRVSCAASGFTFSGYAMYWVRQAPGKGLEYVSAITTNGGSTNYADSVKGRFTISRDNSKNTLYLQMSSLRAGDTAVYYCARGAPGYRGYYMDVWGKGTTVTVSS
notes: as for B1
**Q.** B9 was tested. Which “percent of cells in the gate” value [2] did it give?
**A.** The value was 80.8%.

B10: anti-mesothelin scFv-M13 (scFv)
scFv: AIRMTQSPSSLSASVGDRVTITCRASQGISNSLAWYQQKPGKAPKLLLYAASRLESGVPSRFSGSGSGTDYTLTISSLQPEDFATYYCQQYYSTPFTFGPGTKLEIKGGGGSGGGGSGGGGSQVQLVQSGAEVKKPGSSVKVSCKTSADTFSANTINWVRQAPGHGLEWMGRIIPSLNIRDYAQEFQGRVTFTADESTNTVYMQLTSLRSEDTAVYYCARDPGSTWSPNQFFPHWGQGTLVTVSS
notes: as for B1
**Q.** For B10, which “percent of cells in the gate” value [2] is on record?
**A.** Its value is 71.1%.

B11: 8.6 (bispecific antibody)
scFv-G4S-scFv: QVQLVQSGAEVKKPGSSVKVSCKASGGTFSSYAISWVRQAPGQGLEWMGMINPSGGTTSYAQKFQGRVTMTRDTSTSTVYMELSSLRPEDTAVYYCARGFRMDQWGQGTLVTVSSGGGGSGGGGSGGGGSQSALTQPPSASGSPGQSVTISCTGTSSDVGAYNFVSWYQQHPGNAPKLIIYDVRKRPSGIPDRFSASKSGNTASLTVSGLQADDEADYYCSSYAGNNNLVFGGGTKLTVLGGGGSQVKLQQSGPGLVTPSQSLSITCTVSGFSLSDYGVHWVRQSPGQGLEWLGVIWAGGGTNYNSALMSRKSISKDNSKSQVFLKMNSLQADDTAVYYCARDKGYSYYYSMDYWGQGTTVTVSSGGGGSGGGGSGGGGSDIVLTQSPASLAVSLGQRATISCRASESVEYYVTSLMQWYQQKPGQPPKLLIFAASNVESGVPARFSGSGSGTNFSLNIHPVDEDDVAMYFCQQSRKVPYTFGGGTKLEIK
notes: expressed from mRNA in T cells
**Q.** For B11, which “% of cells in the positive gate” value [3] is on record?
**A.** The value was 98.6.

**Q.** And the “% of cells in the positive gate” value [4]?
**A.** The value was 98.3.

B12: M18 (scFv)
chain 1: QVQLVQSGGGLVQPGGSLRLSCAASGFTFSSYWMHWVRQAPGKGLVWVSRINSDGSSTSYADSVKGRFTISRDNAKNTLYLQMNSLRAEDTAVYYCVRTGWVGSYYYYMDVWGKGTTVTVSS
chain 2: EIVLTQSPGTLSLSPGERATLSCRASQSVSSNYLAWYQQKPGQPPRLLIYDVSTRATGIPARFSGGGSGTDFTLTISSLEPEDFAVYYCQQRSNWPPWTFGQGTKVEIK
**Q.** For B12, which “percent of cells in the gate” value [2] is on record?
**A.** Its value is 9.53%.

B13: anti-mesothelin scFv-M32 (scFv)
scFv: DIRMTQSPSSLSASVGDRVTVTCQASEDINNSLNWYQQKPGKAPQLLIYDASDLETGVPSRFSGRGSGRDFTLTISSLQPEDFATYYCQQLNSYPLTFGGGTKLEIKGGGGSGGGGSGGGGSQVQLVQSGAEVKKPGASVKVSCKASGFTFIGYYLHWVRQAPGQGLEWMGIINPSGGRTSMAQKFQGRVSMTTDTSTGTVYLDLGRLGSDDTAVYYCARADNWNAGSMDVWGNGTTVTVSS
notes: as for B1
**Q.** How did the “percent of cells in the gate” value [1] turn out when B13 was run?
**A.** Its value is 84.1%.

B14: anti-mesothelin scFv-M22 (scFv)
scFv: QSALTQPASVSGSPGQSITLSCTGTRRDIGGYEYVSWYQQHPGKAPKLLIFSVNNRPSGVSHRFSGSKSGNTASLTISGLQAEDEAAYFCSSYSSRDTLVLFGGGTKLTVLGGGGSGGGGSGGGGSQVQLVQSGAEVKKPGSSVKVSCKASGGTFSSYAISWVRQAPGQGLEWMGGIIPIFGTANYAQKFQGRVTITADESTSTAYMELSSLRSEDTAVYYCASGRSGSYGLYWGQGTLVTVSS
notes: as for B1
**Q.** How did the “percent of cells in the gate” value [1] turn out when B14 was run?
**A.** Its value is 80%.

B15: anti-mesothelin scFv-M24 (scFv)
scFv: QPVLTQPPSASGTPGQRVTISCSGSSSNIGSNYVYWYQQFPGTAPKLLIYMNNQRPSGVPDRFSGSKSGTSASLAISGLRSEDEADYYCAARDDSLSGYVTFGGGTKLTVLGGGGSGGGGSGGGGSEVHLVESGGGLVQPGGSLRLSCAASGFTFSSYAMSWVRQAPGKGLEWVSAISGSGGSTYYADSVKGRFTISRDNSKNTLYLQMNSLKTEDTAVYYCTRGVATFDYWGQGTLVTVSS
notes: as for B1
**Q.** With B15 as the binder, how does the “percent of cells in the gate” value [1] read?
**A.** Its value is 93.6%.
